Assay [1] has as its target T1, fibroblast activation protein (FAP) on FAP-expressing human WI-38 fibroblasts (human, UniProt Q12884 1-760).
T1 construct: Endogenous FAP on WI-38 cells (ECACC) in the FACS assay; also called human FAP
Description: competitive FACS on WI-38 cells vs 3 nM Cy5-labeled probe; A = pIC50 >7.0. The procedure:
FAP-expressing human WI-38 fibroblasts (ECACC) were cultured in EMEM including 15% fetal bovine serum, 2 mM L-Glutamine and 1% Non-essential amino acids. Cells were detached with Accutase (Biolegend, #BLD-423201) and washed in FACS buffer (PBS including 1% FBS). Cells were diluted in FACS buffer to a final concentration of 100.000 cells per ml and 200 μl of the cell suspension are transferred to a u-shaped non-binding 96-well plate (Greiner). […] Cell were washed twice with FACS buffer and resuspended in 200 μl FACS buffer. Cells were analyzed in an Attune NxT flow cytometer. Median fluorescence intensities (Cy5 channel) was calculated by Attune NxT software and plotted against peptide concentrations. Four parameter logistic (4PL) curve fitting and pIC50 calculations were performed using ActivityBase software.

Assay [2] concerns the target Recombinant human FAP (R&D systems, #3715-SE) (human, UniProt Q12884 26-760). Description: cell-based or functional assay.

*1 amine or outer side, *2 acyl side, *3 side chain or, on linkers, in order; H or OH if unused. Bridges are numbered along the chain shown (N, C = ends). Primed or numbered codes have the meaning given here. [ ]: non-standard residue; d: D form. The star is where a group is joined. mli = maleimide cyclization element: 3,4-maleimide inserted symmetrically, forming a vinyl thioether with each Cys sulfur; mli(Me)″ = N-methyl maleimide cyclization element, vinyl thioethers with both Cys, CN1C(=O)C([*:1])=C([*:2])C1=O; mli(DOTA-Eda) = 3,4-N-(DOTA-aminoethyl)-maleimide bridging two Cys S atoms as vinyl thioethers; Ttds = 1,13-diamino-4,7,10-trioxatridecan-succinamic acid, NCCCOCCOCCOCCCNC(=O)CCC(=O)*; mli(DOTA-Ttd) = 3,4-N-(DOTA-Ttd)-maleimide bridging two Cys S atoms as vinyl thioethers; mli(NODAGA-Ttd) = mli with NODAGA attached to the maleimide nitrogen via a Ttd linker; mli(N4Ac-Ttd) = mli with N4Ac attached to the maleimide nitrogen via a Ttd linker; mli(Me) = N-methyl maleimide cyclization element, CN1C(=O)C([*:1])=C([*:2])C1=O; N4Ac = 6-carboxy-1,4,8,11-tetraazaundecane, NCCNCC(CNCCN)C(=O)*; Buur = n-butylaminocarbonyl blocking group, CCCCNC(=O)*; DOTA = O=C(O)CN1CCN(CC(=O)O)CCN(CC(=O)*)CCN(CC(=O)O)CC1; NODAGA = O=C(O)CN1CCN(CC(=O)O)CCN(C(CCC(=O)*)C(=O)O)CC1; Maleimide(3,4-diyl) = O=C1NC(=O)C([*:2])=C1[*:1]; O2Oc = 3,6-dioxaoctanoic acid; 4Amb = NCc1ccc(C(=O)O)cc1; hCys = N[C@@H](CCS)C(=O)O; Nle = CCCC[C@H](N)C(=O)O; Hexanoyl = CCCCCC(=O)*

Consider Buur-CPPTQFCDK(DOTA)-NH2 (linker 1-7 via mli) [compound Buur-[Cys(mli)-Pro-Pro-Thr-Gln-Phe-Cys]-Asp-Lys(DOTA)-NH2 (2014)], for which the “pIC50 Category (FACS)” value in assay [1] was > 7 pIC50. In assay [2], the “pIC50 Category (Activity), FRET-based FAP protease activity assay” value (“pIC50 Category (Activity)” for short) was > 7 pIC50.

Consider Hexanoyl-CPPTQFCD-NH2 (linker 1-7 via mli(N4Ac-Ttd)) [compound Hex-[Cys(mli(N4Ac-Ttd))-Pro-Pro-Thr-Gln-Phe-Cys]-Asp-NH2 (2026)], for which the “pIC50 Category (FACS)” value in assay [1] is > 7 pIC50. Moreover, the “pIC50 Category (Activity)” value in assay [2] was > 7 pIC50.

In the case of {DOTA-Ttds}-[Nle]CPPTQFCD-NH2 (linker 2-8 via mli) [compound DOTA-Ttds-Nle-[Cys(mli)-Pro-Pro-Thr-Gln-Phe-Cys]-Asp-NH2 (2005)], in assay [1], the “pIC50 Category (FACS)” value was > 7 pIC50. Further, the “pIC50 Category (Activity)” value in assay [2] is > 7 pIC50.

With {DOTA-Ttds}-[Nle]CPPTEFCD[4Amb]R-NH2 (disulfide 2-8, By the running order it belongs to 1007) [compound DOTA-Ttds-Nle-[Cys-Pro-Pro-Thr-Glu-Phe-Cys]-Asp-Pamb-Arg-NH2 (1007)], the “pIC50 Category (FACS)” value in assay [1] was > 7 pIC50. Besides, the “pIC50 Category (Activity)” value in assay [2] is > 7 pIC50.

Take {DOTA-Ttds}-[Nle]CPPTQFCD[4Amb]R-NH2 (linker 2-8 via Maleimide(3,4-diyl)) [compound DOTA-Ttds-Nle-[Cys(mli)-Pro-Pro-Thr-Gln-Phe-Cys]-Asp-Pamb-Arg-NH2 (2006)]: the “pIC50 Category (FACS)” value in assay [1] was > 7 pIC50. In assay [2], the “pIC50 Category (Activity)” value is > 7 pIC50.

For the molecule Hexanoyl-CPPTQFCD-NH2 (linker 1-7 via mli(DOTA-Ttd)) [compound Hex-[Cys(mli(DOTA-Ttd))-Pro-Pro-Thr-Gln-Phe-Cys]-Asp-NH2 (2017)], in assay [1], the “pIC50 Category (FACS)” value was > 7 pIC50. In addition, the “pIC50 Category (Activity)” value in assay [2] is > 7 pIC50.

With Hexanoyl-CPPTQFCDK(NODAGA)-NH2 (linker 1-7 via mli) [compound Hex-[Cys(mli)-Pro-Pro-Thr-Gln-Phe-Cys]-Asp-Lys(NODAGA)-NH2 (2023)], in assay [1], the “pIC50 Category (FACS)” value was > 7 pIC50. Further, the “pIC50 Category (Activity)” value in assay [2] was > 7 pIC50.

Take {DOTA-Ttds}-[Nle]CPPTQFCD-NH2 (linker 2-8 via mli(Me)″) [compound DOTA-Ttds-Nle-[Cys(mli(Me))-Pro-Pro-Thr-Gln-Phe-Cys]-Asp-NH2 (2016)]: in assay [1], the “pIC50 Category (FACS)” value is > 7 pIC50. Besides, the “pIC50 Category (Activity)” value in assay [2] is > 7 pIC50.

For the molecule Hexanoyl-CPPTQFCD-NH2 (linker 1-7 via mli) [compound Hex-[Cys(mli)-Pro-Pro-Thr-Gln-Phe-Cys]-Asp-NH2 (2001)], the “pIC50 Category (FACS)” value in assay [1] was > 7 pIC50. For the same molecule, in assay [2], the “pIC50 Category (Activity)” value was > 7 pIC50.

For the molecule {DOTA}-[Nle]CPPTQFCD-NH2 (linker 2-8 via mli) [compound DOTA-Nle-[Cys(mli)-Pro-Pro-Thr-Gln-Phe-Cys]-Asp-NH2 (2003)], the “pIC50 Category (FACS)” value in assay [1] is > 7 pIC50. For the same molecule, the “pIC50 Category (Activity)” value in assay [2] was > 7 pIC50.

Regarding {DOTA-O2Oc}-[Nle]CPPTEFCDHFRD-NH2 (disulfide 2-8, By the running order it belongs to 1005) [compound DOTA-O2Oc-Nle-[Cys-Pro-Pro-Thr-Glu-Phe-Cys]-Asp-His-Phe-Arg-Asp-NH2 (1005)], in assay [1], the “pIC50 Category (FACS)” value is > 7 pIC50. In assay [2], the “pIC50 Category (Activity)” value was > 7 pIC50.

Take {DOTA-Ttds}-[Nle]CPPTQFCD-NH2 (disulfide 2-8) [compound DOTA-Ttds-Nle-[Cys-Pro-Pro-Thr-Gln-Phe-Cys]-Asp-NH2 (1008)]: the “pIC50 Category (FACS)” value in assay [1] is > 7 pIC50. In assay [2], the “pIC50 Category (Activity)” value is > 7 pIC50.

B1: compound Hex-[Cys(mli(Me))-Pro-Pro-Thr-Gln-Phe-Cys]-Asp-Lys(DOTA)-NH2 (2015) (peptide)
peptide: Hexanoyl-CPPTQFCDK(DOTA)-NH2
modifications: linker 1-7 via mli(Me)
SMILES: CCCCCC(=O)N[C@H]1CSC2=C(SC[C@@H](C(=O)N[C@@H](CC(=O)O)C(=O)N[C@@H](CCCCNC(=O)CN3CCN(CC(=O)O)CCN(CC(=O)O)CCN(CC(=O)O)CC3)C(N)=O)NC(=O)[C@H](Cc3ccccc3)NC(=O)[C@H](CCC(N)=O)NC(=O)[C@H]([C@@H](C)O)NC(=O)[C@@H]3CCCN3C(=O)[C@@H]3CCCN3C1=O)C(=O)N(C)C2=O
Take B1: the “pIC50 Category (FACS)” value in assay [1] was > 7 pIC50. Besides, in assay [2], the “pIC50 Category (Activity)” value is > 7 pIC50.

In the case of Hexanoyl-CPPTQFCD-NH2 (linker 1-7 via mli(NODAGA-Ttd)) [compound Hex-[Cys(mli(NODAGA-Ttd))-Pro-Pro-Thr-Gln-Phe-Cys]-Asp-NH2 (2025)], the “pIC50 Category (FACS)” value in assay [1] was > 7 pIC50. Moreover, the “pIC50 Category (Activity)” value in assay [2] is > 7 pIC50.

For {DOTA-Ttds}-[Nle]CPPTEFCDHFRD-NH2 (disulfide 2-8, By the running order it belongs to 1006) [compound DOTA-Ttds-Nle-[Cys-Pro-Pro-Thr-Glu-Phe-Cys]-Asp-His-Phe-Arg-Asp-NH2 (1006)], the “pIC50 Category (FACS)” value in assay [1] is > 7 pIC50. The “pIC50 Category (Activity)” value in assay [2] is > 7 pIC50.

Take Hexanoyl-[hCys]PPTQF[hCys]D-NH2 (disulfide 1-7) [compound Hex-[Hcy-Pro-Pro-Thr-Gln-Phe-Hcy]-Asp-NH2 (2002)]: in assay [1], the “pIC50 Category (FACS)” value was > 7 pIC50. For the same molecule, the “pIC50 Category (Activity)” value in assay [2] is > 7 pIC50.

On to {DOTA-O2Oc}-[Nle]CPPTQFCD-NH2 (linker 2-8 via mli) [compound DOTA-O2Oc-Nle-[Cys(mli)-Pro-Pro-Thr-Gln-Phe-Cys]-Asp-NH2 (2004)], for which, in assay [1], the “pIC50 Category (FACS)” value is > 7 pIC50. In addition, the “pIC50 Category (Activity)” value in assay [2] was > 7 pIC50.

As to Hexanoyl-CPPTQFCDK(DOTA)-NH2 (linker 1-7 via mli) [compound Hex-[Cys(mli)-Pro-Pro-Thr-Gln-Phe-Cys]-Asp-Lys(DOTA)-NH2 (2012)], in assay [1], the “pIC50 Category (FACS)” value was > 7 pIC50. The “pIC50 Category (Activity)” value in assay [2] was > 7 pIC50.

As for Hexanoyl-CPPTQFCD-NH2 (linker 1-7 via mli(DOTA-Eda)) [compound Hex-[Cys(mli(DOTA-Eda))-Pro-Pro-Thr-Gln-Phe-Cys]-Asp-NH2 (2018)], the “pIC50 Category (FACS)” value in assay [1] is > 7 pIC50. In addition, in assay [2], the “pIC50 Category (Activity)” value was > 7 pIC50.

In the case of Hexanoyl-CPPTQFCDK(N4Ac)-NH2 (linker 1-7 via mli) [compound Hex-[Cys(mli)-Pro-Pro-Thr-Gln-Phe-Cys]-Asp-Lys(N4Ac)-NH2 (2024)], in assay [1], the “pIC50 Category (FACS)” value was > 7 pIC50. For the same molecule, in assay [2], the “pIC50 Category (Activity)” value was > 7 pIC50.

The values above are taken from patent publication US20240115745A1 (3B PHARMACEUTICALS, published 2024).
